{"source": "patent US20250354131A1", "about": "“NOVEL GLYCOSYNTHASE” (CarboCode S.A., priority 2021, published 2025)", "molecules": {"B1": {"name": "SEQ ID NO: 5: EGC synthase, E350S, Δ146-152; Rhodococcus sp. AQ5-07 (protein)", "chain": "MRRIPLSALIVAGSLILGGGIAAAQGSLPTSGSAGGTDVPPSYLTDDAGRSLILRGFNTASSAKSAPDGMPKFTEADLEREHADMGTNFVRFLISWRSVEPEPGQYDQEYLDRVEDRVSWYAERGYKVMLDMHQDVYSGAITPEGNIGNGAPAWATYMDGLPVSPQDRWELYYIQPGVMRAFDNFWNTTGQHPELVEHYANAWQAVAERFAGNDTVVAYDLMNEPWGGSLQGPAFEGGPLAALYQRTTNAIREVDQDSWVCVAPQAVGVNQGVPSGLTKINDPRAGEQRIAYCPHLYPLPLDLGDGYSGLSRTLTDATIDTWRDSVEHIAGNVLGGVPVILASFGLDTTLPGATDYIDRVYATARELGAGVSYWSSDPGPWGPYLPDGTQTLLVDTLNRPYPRAVAGTPTEWSSSVDRLQLTFTPNPAVTAPTEIYLPESGFPGGVDVAGADIVNWNPQSRLLTVETADDAGPVTVTVTPAS"}, "B2": {"name": "SEQ ID NO: 17: Reference EGC synthase, E351S, D314Y, A153T, Δ1-30, N-term. His-Tag; Rhodococcus sp. strain M-777 (protein)", "chain": "MGSSHHHHHHSSGLVPRGSHMSGSGSGSGTALTPSYLKDDDGRSLILRGFNTASSAKSAPDGMPQFTEADLAREYADMGTNFVRFLISWRSVEPAPGVYDQQYLDRVEDRVGWYAERGYKVMLDMHQDVYSGAITPEGNSGNGTGAIGNGAPAWATYMDGLPVEPQPRWELYYIQPGVMRAFDNFWNTTGKHPELVEHYAKAWRAVADRFADNDAVVAYDLMNEPFGGSLQGPAFEAGPLAAMYQRTTDAIRQVDQDTWVCVAPQAIGVNQGLPSGLTKIDDPRAGQQRIAYCPHLYPLPLDIGYGHEGLARTLTDVTIDAWRANTAHTARVLGDVPIILGSFGLDTTLPGARDYIERVYGTAREMGAGVSYWSSDPGPWGPYLPDGTQTLLVDTLNKPYPRAVAGTPTEWSSTSDRLQLTIEPDAAITAPTEIYLPEAGFPGDVHVEGADVVGWDRQSRLLTVRTPADSGNVTVTVTPAA", "modifications": "N-terminal His-tag"}, "B3": {"name": "SEQ ID NO: 8: EGC synthase, E350S, D312Y, Δ1-24, N-term. His-Tag, Δ146-152; Rhodococcus sp. AQ5-07 (protein)", "chain": "MGHHHHHHMQGSLPTSGSAGGTDVPPSYLTDDAGRSLILRGFNTASSAKSEPEPGQYDQEYLDRVEDRVSWYAERGYKVMLDMHQDVYSGAITPEGNIGNGAPAWATYMDGLPVSPQDRWELYYIQPGVMRAFDNFWNTTGQHPELVEHYANAWQAVAERFAGNDTVVAYDLMNEPWGGSLQGPAFEGGPLAALYQRTTNAIREVDQDSWVCVAPQAVGVNQGVPSGLTKINDPRAGEQRIAYCPHLYPLPLDLGYGYSGLSRTLTDATIDTWRDSVEHIAGNVLGGVPVILASFGLDTTLPGATDYIDRVYATARELGAGVSYWSSDPGPWGPYLPDGTQTLLVDTLNRPYPRAVAGTPTEWSSSVDRLQLTFTPNPAVTAPTEIYLPESGFPGGVDVAGADIVNWNPQSRLLTVEAPDGMPKFTEADLEREHADMGTNFVRFLISWRSVTADDAGPVTVTVTPAS", "modifications": "N-terminal His-tag"}, "B4": {"name": "SEQ ID NO: 4: EGC synthase, E350S, Δ1-24, N-term. His-Tag; Rhodococcus sp. AQ5-07 (protein)", "chain": "MGHHHHHHMQGSLPTSGSAGGTDVPPSYLTDDAGRSLILRGFNTASSAKSEPEPGQYDQEYLDRVEDRVSWYAERGYKVMLDMHQDVYSGAITPEGNSGNGAGNIGNGAPAWATYMDGLPVSPQDRWELYYIQPGVMRAFDNFWNTTGQHPELVEHYANAWQAVAERFAGNDTVVAYDLMNEPWGGSLQGPAFEGGPLAALYQRTTNAIREVDQDSWVCVAPQAVGVNQGVPSGLTKINDPRAGEQRIAYCPHLYPLPLDLGDGYSGLSRTLTDATIDTWRDSVEHIAGNVLGGVPVILASFGLDTTLPGATDYIDRVYATARELGAGVSYWSSDPGPWGPYLPDGTQTLLVDTLNRPYPRAVAGTPTEWSSSVDRLQLTFTPNPAVTAPTEIYLPESGFPGGVDVAGADIVNWNPQSRLLTVEAPDGMPKFTEADLEREHADMGTNFVRFLISWRSVTADDAGPVTVTVTPAS", "modifications": "N-terminal His-tag"}, "B5": {"name": "SEQ ID NO: 15: EGC synthase, E339S, Δ1-26; Rhodococcus hoagii 103S (SEQ ID NO: 14) (protein)", "chain": "MAPPATPITTLQADGTHLVDGYGRTVLLHGVNNVDKDAPYLPAGETLTPQDIDILVRHGFNTVRLGTSFDALMPQRGQIDEAYLDRLTGVVDALTARGMHVLLDNHQDGLSKAWGGNGFPEWAIESRPREWEPNPGFPLYYLMPSLNAGWDEVWGNTHGALDHLGTALGALAERVEGKPGVMGIELLNEPWPGSRFLSCFPNGCPDFDRTYQAAMQKLTDAVRAQNPTIPVYWEPNVTWNQMMPSNLFAPPVTPALTTADVVFAPHDYCIPSQLAIYLGLPQALRGLCVPQQDLTWSNIDAITERANVPTVITSFGDGDPTVLKNTLARADERFIGWQYWHFGAGNATDPFLGEVGRQLVRTYPQATAGEPGRMIFDADNGDFAYRFTPRAATRPTEIFVSDLHYPDGYAVQVDGGQVTSAPGARIVTVVADGSGPVTVKINRPGSAGAEVPDGPIETSSSGSSGSS"}, "B6": {"name": "SEQ ID NO: 18: EGC synthase, E351S, D314Y, Δ1-30, N-term. His-Tag, Δ148-154; Rhodococcus sp. strain M-777 (protein)", "chain": "MGSSHHHHHHSSGLVPRGSHMSGSGSGSGTALTPSYLKDDDGRSLILRGFNTASSAKSAPDGMPQFTEADLAREYADMGTNFVRFLISWRSVEPAPGVYDQQYLDRVEDRVGWYAERGYKVMLDMHQDVYSGAITPEGAIGNGAPAWATYMDGLPVEPQPRWELYYIQPGVMRAFDNFWNTTGKHPELVEHYAKAWRAVADRFADNDAVVAYDLMNEPFGGSLQGPAFEAGPLAAMYQRTTDAIRQVDQDTWVCVAPQAIGVNQGLPSGLTKIDDPRAGQQRIAYCPHLYPLPLDIGYGHEGLARTLTDVTIDAWRANTAHTARVLGDVPIILGSFGLDTTLPGARDYIERVYGTAREMGAGVSYWSSDPGPWGPYLPDGTQTLLVDTLNKPYPRAVAGTPTEWSSTSDRLQLTIEPDAAITAPTEIYLPEAGFPGDVHVEGADVVGWDRQSRLLTVRTPADSGNVTVTVTPAA", "modifications": "N-terminal His-tag"}, "B7": {"name": "SEQ ID NO: 6: EGC synthase, E350S, Δ1-24, N-term. His-Tag, Δ146-152; Rhodococcus sp. AQ5-07 (protein)", "chain": "B3 chain with Y256D", "modifications": "N-terminal His-tag"}}, "note": "Positions count from the first letter of the chain named. In names and notes the source's numbering stands.", "data": [{"assay": "Km determination of EGC synthases with lactosyl fluoride and sphingosine (HPLC-ELSD)", "format": "biochemical", "details": "Donor Lac-F, acceptor sphingosine; cell-free extract", "procedure": "(§1) The assay mixture contained 1 M sodium acetate buffer at pH 5.5, 20 mg/mL sphingosine-base and EGCS enzyme. As a reference, EGC synthase of SEQ ID NO:17 was used. Six different concentrations of lactosyl fluoride (Lac-F) ranging from 5 mg/mL to 164 mg/mL were assayed. From every assay mixture, four time points were collected by quenching the reaction with 19× volume of DMSO. The samples were analyzed by HPLC-ELSD analysis and conversion rates were determined by linear regression.", "units": {"U/mg CFE": "U/mg CFE"}, "values": [{"molecule": "B1", "U/mg CFE": 0.61}, {"molecule": "B2", "U/mg CFE": 0.074}, {"molecule": "B3", "U/mg CFE": 0.60}, {"molecule": "B4", "U/mg CFE": 0.20}]}, {"assay": "Km determination of EGC synthases with lactosyl fluoride and sphingosine (HPLC-ELSD)", "format": "biochemical", "details": "relative to reference SEQ ID NO: 17; donor Lac-F, acceptor sphingosine", "procedure": "as §1", "values": [{"molecule": "B1", "Fold improvement to reference": 8.2}, {"molecule": "B2", "Fold improvement to reference": 1.0}, {"molecule": "B3", "Fold improvement to reference": 8.1}, {"molecule": "B4", "Fold improvement to reference": 2.7}]}, {"assay": "Enzymatic conversion of lactosyl sphingoid bases with β-galactosidase", "format": "biochemical", "details": "within about 48 to about 72 hours at about 37° C.; 1 M NaOAc pH 5.0, 5 g/L β-cyclodextrin, 5 g/L enzyme", "procedure": "Enzymatic reactions were performed in 1 M NaOAc buffer (pH set to 5.0). A typical reaction mixture contained 50-100 g/L of lactosyl sphingoid base (synthesised according to the general procedure of Example 3 or Example 5), 5 g/L of β-cyclodextrin, 5 g/L of β-galactosidase (e.g. from A. oryzae). Typically, the reaction proceeds up to 99% conversion within about 48 to about 72 hours at about 37° C. and continuous stirring. The enzymatic reaction was followed by LCMS analysis (for methods and conditions see Example 9).\nSamples (25 μL) were taken from reaction mixtures, mixed with DMSO (950 μL) and subjected to centrifugation (16.000 rpm, 5 min) and analyzed with a Shimadzu ECO 2020 LC system coupled with a Shimadzu LCMS-2020 system. The HPLC analysis was performed using a Merck Ascentis Express RP-Amide column (15 cm×4.6 mm, 2.7 μm). For analysis of compounds the eluent consisted of solvent D (2 mM ammonium formate, […], 75% v/v MeOH, 25% v/v ACN)-solvent C (2 mM formic acid in filtered ddH2O), and the following gradient was applied as stated in the table below. The flow rate was 1 mL/min. The MS analysis was performed under the following conditions: ESI positive ionization, vaporizer temperature 300° C.; LC-MS mode, 1:1 split of flow; ESI negative ionization, vaporizer temperature 300° C.; LC-MS mode, 1:1 split of flow.", "values": [{"molecule": "β-galactosidase", "conversion": "up to 99%"}]}, {"assay": "Production of lactosyl-6-hydroxysphingosine: conversion rates of different enzymes", "format": "biochemical", "details": "Time 1 h; 30 mg/mL 6-OH-Sph, 300 mg/mL Lac-F, 1 M NaOAc, pH 6.0, 37° C.", "procedure": "(§2) Reaction contained: 30 mg/mL 6-OH-Sph, 300 mg/mL Lac-F, enzyme, 1 M NaOAc.\n(§3) Reactions were executed at pH 6.0, 37° C. and 1500 rpm stirring. Product analysis was done by ELSD (% rel. conversion) and LC-MS using standard conditions for Lac-Sph analysis.", "units": {"Conversion [% ELSD area product]": "% ELSD area product"}, "values": [{"molecule": "B5", "Conversion [% ELSD area product]": 3.7}, {"molecule": "B6", "Conversion [% ELSD area product]": 99.3}, {"molecule": "B2", "Conversion [% ELSD area product]": 99.4}, {"molecule": "B3", "Conversion [% ELSD area product]": 100}, {"molecule": "B7", "Conversion [% ELSD area product]": 100}]}, {"assay": "Production of lactosyl-6-hydroxysphingosine: conversion rates of different enzymes", "format": "biochemical", "details": "Time 2 h; 30 mg/mL 6-OH-Sph, 300 mg/mL Lac-F, 1 M NaOAc, pH 6.0, 37° C.", "procedure": "as §2, §3", "units": {"Conversion [% ELSD area product]": "% ELSD area product"}, "values": [{"molecule": "B5", "Conversion [% ELSD area product]": 9.1}, {"molecule": "B6", "Conversion [% ELSD area product]": 99.8}, {"molecule": "B2", "Conversion [% ELSD area product]": 100}, {"molecule": "B3", "Conversion [% ELSD area product]": 100}, {"molecule": "B7", "Conversion [% ELSD area product]": 100}]}]}
